In US20210139548A1 (published 2021):
Blank lines part the entries; values can stand above or below the binder they belong to. *1 amine or outer side, *2 acyl side, *3 side chain or, on linkers, in order; H or OH if unused. Side-chain parts run from the residue outwards. The star is where a group is joined. C18 diacid = O=C(O)CCCCCCCCCCCCCCCCC(=O)*; γGlu = O=C(O)[C@H](CCC(=O)[*:2])N[*:1]; Isovaleryl = CC(C)CC(=O)*; AEEA = NCCOCCOCC(=O)O

Molecular target: T1, human neuropeptide Y2 receptor (human, UniProt P49146 1-381)
T1 construct: whole, on cells; also called hNPY2 receptor; hNPY2-R
T1 sequence (looked up): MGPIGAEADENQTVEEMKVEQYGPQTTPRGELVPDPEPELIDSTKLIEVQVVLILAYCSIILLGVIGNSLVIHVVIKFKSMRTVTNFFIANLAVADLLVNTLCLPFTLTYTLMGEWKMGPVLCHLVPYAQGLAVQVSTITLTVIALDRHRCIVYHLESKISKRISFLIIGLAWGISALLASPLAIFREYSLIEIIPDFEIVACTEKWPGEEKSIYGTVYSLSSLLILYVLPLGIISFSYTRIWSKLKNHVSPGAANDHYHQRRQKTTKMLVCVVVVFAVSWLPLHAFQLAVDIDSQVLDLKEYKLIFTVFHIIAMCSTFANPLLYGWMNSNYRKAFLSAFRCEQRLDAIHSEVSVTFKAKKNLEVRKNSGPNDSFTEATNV
Test: radioligand competition (125I-PYY(1-36)), hNPY2R membranes
Summary of the method: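 Commercial human Y2 receptor membranes (0.5 μg protein/well) were incubated with peptide for 2 h at room temperature in 50 mM HEPES, 5 mM MgCl₂, 1 mM CaCl₂, pH 7.4, with 0.2% ovalbumin. Bound radioligand was separated on PEI-soaked GF/C filters and counted by scintillation, and IC₅₀ came from nonlinear sigmoidal regression.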

B1: Compound 227 (peptide)
peptide: Isovaleryl-APEK([AEEA-AEEA-γGlu-C18 diacid])AEEDASPEELEQYYVSLRHYYNWLTRQRY-NH2
SMILES: CC(C)CC(=O)N[C@@H](C)C(=O)N1CCC[C@H]1C(=O)N[C@@H](CCC(=O)O)C(=O)N[C@@H](CCCCNC(=O)COCCOCCNC(=O)COCCOCCNC(=O)CC[C@H](NC(=O)CCCCCCCCCCCCCCCCC(=O)O)C(=O)O)C(=O)N[C@@H](C)C(=O)N[C@@H](CCC(=O)O)C(=O)N[C@@H](CCC(=O)O)C(=O)N[C@@H](CC(=O)O)C(=O)N[C@@H](C)C(=O)N[C@@H](CO)C(=O)N1CCC[C@H]1C(=O)N[C@@H](CCC(=O)O)C(=O)N[C@@H](CCC(=O)O)C(=O)N[C@@H](CC(C)C)C(=O)N[C@@H](CCC(=O)O)C(=O)N[C@@H](CCC(N)=O)C(=O)N[C@@H](Cc1ccc(O)cc1)C(=O)N[C@@H](Cc1ccc(O)cc1)C(=O)N[C@H](C(=O)N[C@@H](CO)C(=O)N[C@@H](CC(C)C)C(=O)N[C@@H](CCCNC(=N)N)C(=O)N[C@@H](Cc1c[nH]cn1)C(=O)N[C@@H](Cc1ccc(O)cc1)C(=O)N[C@@H](Cc1ccc(O)cc1)C(=O)N[C@@H](CC(N)=O)C(=O)N[C@@H](Cc1c[nH]c2ccccc12)C(=O)N[C@@H](CC(C)C)C(=O)N[C@H](C(=O)N[C@@H](CCCNC(=N)N)C(=O)N[C@@H](CCC(N)=O)C(=O)N[C@@H](CCCNC(=N)N)C(=O)N[C@@H](Cc1ccc(O)cc1)C(N)=O)[C@@H](C)O)C(C)C
Ki: 12.3 nM

B2: Compound 232 (peptide)
peptide: Isovaleryl-APAK([AEEA-AEEA-γGlu-C18 diacid])PPEDASPEELQRYYVELRHYYNWLTRQRY-NH2
SMILES: CC(C)CC(=O)N[C@@H](C)C(=O)N1CCC[C@H]1C(=O)N[C@@H](C)C(=O)N[C@@H](CCCCNC(=O)COCCOCCNC(=O)COCCOCCNC(=O)CC[C@H](NC(=O)CCCCCCCCCCCCCCCCC(=O)O)C(=O)O)C(=O)N1CCC[C@H]1C(=O)N1CCC[C@H]1C(=O)N[C@@H](CCC(=O)O)C(=O)N[C@@H](CC(=O)O)C(=O)N[C@@H](C)C(=O)N[C@@H](CO)C(=O)N1CCC[C@H]1C(=O)N[C@@H](CCC(=O)O)C(=O)N[C@@H](CCC(=O)O)C(=O)N[C@@H](CC(C)C)C(=O)N[C@@H](CCC(N)=O)C(=O)N[C@@H](CCCNC(=N)N)C(=O)N[C@@H](Cc1ccc(O)cc1)C(=O)N[C@@H](Cc1ccc(O)cc1)C(=O)N[C@H](C(=O)N[C@@H](CCC(=O)O)C(=O)N[C@@H](CC(C)C)C(=O)N[C@@H](CCCNC(=N)N)C(=O)N[C@@H](Cc1c[nH]cn1)C(=O)N[C@@H](Cc1ccc(O)cc1)C(=O)N[C@@H](Cc1ccc(O)cc1)C(=O)N[C@@H](CC(N)=O)C(=O)N[C@@H](Cc1c[nH]c2ccccc12)C(=O)N[C@@H](CC(C)C)C(=O)N[C@H](C(=O)N[C@@H](CCCNC(=N)N)C(=O)N[C@@H](CCC(N)=O)C(=O)N[C@@H](CCCNC(=N)N)C(=O)N[C@@H](Cc1ccc(O)cc1)C(N)=O)[C@@H](C)O)C(C)C
Ki: 0.81 nM

B4: Compound 229 (peptide)
peptide: Isovaleryl-APEK([AEEA-AEEA-γGlu-C18 diacid])PEEDASPEELQRYYVSARHYYNWLTRQRY-NH2
SMILES: CC(C)CC(=O)N[C@@H](C)C(=O)N1CCC[C@H]1C(=O)N[C@@H](CCC(=O)O)C(=O)N[C@@H](CCCCNC(=O)COCCOCCNC(=O)COCCOCCNC(=O)CC[C@H](NC(=O)CCCCCCCCCCCCCCCCC(=O)O)C(=O)O)C(=O)N1CCC[C@H]1C(=O)N[C@@H](CCC(=O)O)C(=O)N[C@@H](CCC(=O)O)C(=O)N[C@@H](CC(=O)O)C(=O)N[C@@H](C)C(=O)N[C@@H](CO)C(=O)N1CCC[C@H]1C(=O)N[C@@H](CCC(=O)O)C(=O)N[C@@H](CCC(=O)O)C(=O)N[C@@H](CC(C)C)C(=O)N[C@@H](CCC(N)=O)C(=O)N[C@@H](CCCNC(=N)N)C(=O)N[C@@H](Cc1ccc(O)cc1)C(=O)N[C@@H](Cc1ccc(O)cc1)C(=O)N[C@H](C(=O)N[C@@H](CO)C(=O)N[C@@H](C)C(=O)N[C@@H](CCCNC(=N)N)C(=O)N[C@@H](Cc1c[nH]cn1)C(=O)N[C@@H](Cc1ccc(O)cc1)C(=O)N[C@@H](Cc1ccc(O)cc1)C(=O)N[C@@H](CC(N)=O)C(=O)N[C@@H](Cc1c[nH]c2ccccc12)C(=O)N[C@@H](CC(C)C)C(=O)N[C@H](C(=O)N[C@@H](CCCNC(=N)N)C(=O)N[C@@H](CCC(N)=O)C(=O)N[C@@H](CCCNC(=N)N)C(=O)N[C@@H](Cc1ccc(O)cc1)C(N)=O)[C@@H](C)O)C(C)C
Ki: 2.84 nM

The remaining lines, values ahead:

Ki: 1.95 nM
B3: Compound 234 (peptide)
peptide: Isovaleryl-APAK([AEEA-AEEA-γGlu-C18 diacid])PEEEASPEELQRYYVSLRHYYNWLTRQRY-NH2
SMILES: CC(C)CC(=O)N[C@@H](C)C(=O)N1CCC[C@H]1C(=O)N[C@@H](C)C(=O)N[C@@H](CCCCNC(=O)COCCOCCNC(=O)COCCOCCNC(=O)CC[C@H](NC(=O)CCCCCCCCCCCCCCCCC(=O)O)C(=O)O)C(=O)N1CCC[C@H]1C(=O)N[C@@H](CCC(=O)O)C(=O)N[C@@H](CCC(=O)O)C(=O)N[C@@H](CCC(=O)O)C(=O)N[C@@H](C)C(=O)N[C@@H](CO)C(=O)N1CCC[C@H]1C(=O)N[C@@H](CCC(=O)O)C(=O)N[C@@H](CCC(=O)O)C(=O)N[C@@H](CC(C)C)C(=O)N[C@@H](CCC(N)=O)C(=O)N[C@@H](CCCNC(=N)N)C(=O)N[C@@H](Cc1ccc(O)cc1)C(=O)N[C@@H](Cc1ccc(O)cc1)C(=O)N[C@H](C(=O)N[C@@H](CO)C(=O)N[C@@H](CC(C)C)C(=O)N[C@@H](CCCNC(=N)N)C(=O)N[C@@H](Cc1c[nH]cn1)C(=O)N[C@@H](Cc1ccc(O)cc1)C(=O)N[C@@H](Cc1ccc(O)cc1)C(=O)N[C@@H](CC(N)=O)C(=O)N[C@@H](Cc1c[nH]c2ccccc12)C(=O)N[C@@H](CC(C)C)C(=O)N[C@H](C(=O)N[C@@H](CCCNC(=N)N)C(=O)N[C@@H](CCC(N)=O)C(=O)N[C@@H](CCCNC(=N)N)C(=O)N[C@@H](Cc1ccc(O)cc1)C(N)=O)[C@@H](C)O)C(C)C

Ki: 25.1 nM
B5: Compound 238 (peptide)
peptide: Isovaleryl-APEK([AEEA-AEEA-γGlu-C18 diacid])TEEEASPEELQRYYVSLRHYYNWLTRQRY-NH2
SMILES: CC(C)CC(=O)N[C@@H](C)C(=O)N1CCC[C@H]1C(=O)N[C@@H](CCC(=O)O)C(=O)N[C@@H](CCCCNC(=O)COCCOCCNC(=O)COCCOCCNC(=O)CC[C@H](NC(=O)CCCCCCCCCCCCCCCCC(=O)O)C(=O)O)C(=O)N[C@H](C(=O)N[C@@H](CCC(=O)O)C(=O)N[C@@H](CCC(=O)O)C(=O)N[C@@H](CCC(=O)O)C(=O)N[C@@H](C)C(=O)N[C@@H](CO)C(=O)N1CCC[C@H]1C(=O)N[C@@H](CCC(=O)O)C(=O)N[C@@H](CCC(=O)O)C(=O)N[C@@H](CC(C)C)C(=O)N[C@@H](CCC(N)=O)C(=O)N[C@@H](CCCNC(=N)N)C(=O)N[C@@H](Cc1ccc(O)cc1)C(=O)N[C@@H](Cc1ccc(O)cc1)C(=O)N[C@H](C(=O)N[C@@H](CO)C(=O)N[C@@H](CC(C)C)C(=O)N[C@@H](CCCNC(=N)N)C(=O)N[C@@H](Cc1c[nH]cn1)C(=O)N[C@@H](Cc1ccc(O)cc1)C(=O)N[C@@H](Cc1ccc(O)cc1)C(=O)N[C@@H](CC(N)=O)C(=O)N[C@@H](Cc1c[nH]c2ccccc12)C(=O)N[C@@H](CC(C)C)C(=O)N[C@H](C(=O)N[C@@H](CCCNC(=N)N)C(=O)N[C@@H](CCC(N)=O)C(=O)N[C@@H](CCCNC(=N)N)C(=O)N[C@@H](Cc1ccc(O)cc1)C(N)=O)[C@@H](C)O)C(C)C)[C@@H](C)O
